From US20250163223A1, “HYDROGEL INCLUSION COMPLEX INCLUDING PHYSIOLOGICALLY ACTIVE MATERIAL BOUND TO THERMOSENSITIVE POLY(PHOSPHAZENE) BY HOST-GUEST INTERACTION USING BETA-CYCLODEXTRIN AND USE THEREOF” (KOREA INSTITUTE OF SCIENCE AND TECHNOLOGY, priority 2019, published 2025)
Ends that are not written are not given here. PEG = not defined here

Assay: Dynamic light scattering (DLS) particle size in aqueous environment
Format: physicochemical
From the text: In this example, it was hypothesized that binding affinity between β-CD and Ad-RGD would induce the well-controlled guest molecule amount through the Ad-RGDs inserted at different amounts with one another. First of all, β-CD PPZ and β-CD PPZ+Ad-RGD gave different results from measurement of dynamic light scattering (DLS). […] As Ad-RGDs were included in β-CD PPZ, the practical size of aqueous particles of β-CD PPZ+Ad-RGD was increased.
Further, to identify whether Ad-peptides were stoichiometrically and accurately inserted into the host molecules, dynamic light scattering (DLS) measurement was performed by mixing host molecules and guest molecules such that the ratio of host molecule: guest molecule was 1:1, 1:1.2, and 0:1. […] In this DLS result of the conjugate in which the ratio of host molecule:guest molecule was 1:1, any peaks involved in guest molecules alone were not shown (C of FIG. 17). It means that there were no guest molecules separated from β-CD PPZ. […] This means that all of the Ad-peptides were incorporated into the conjugates of β-CD PPZ and Ad-peptide (host molecule:guest molecule=1:1) in the aqueous environment. On the other hand, it was confirmed that when Ad-peptides was excessively mixed with β-CD PPZ (host molecule: guest molecule=1:1.2), the surplus Ad-peptides formed their own other peaks analogous to those of Ad-TGF and Ad-HAV alone (FIG. 18). […]

Substance	average particle size
adamantane-PEG-CESPLKRQ ({adamantane-PEG}-CESPLKRQ; reading uncertain) [Ad-TGF, TGF-β1 mimic peptide linked to adamantane via PEG]	353.63±31.71 nm
adamantane-PEG-CLRAHAVDIN ({adamantane-PEG}-CLRAHAVDIN; not fully specified; reading uncertain) [Ad-HAV, N-cadherin mimic peptide linked to adamantane via PEG]	460.78±49.53 nm
